Results on 13 molecules are retold here after PMC8707168, “PL1 Peptide Engages Acidic Surfaces on Tumor-Associated Fibronectin and Tenascin Isoforms to Trigger Cellular Uptake” (Pharmaceutics, 2021).

The test system of one assay is U87-MG cells. The assay is described as follows: Effect of endocytosis inhibitors on PL1-AgNP uptake (flow cytometry). Particulars: pre-incubation with 50 μM Nystatin, 50 μM EIPA, 4 μM Cytochalasin D or 10 μM Chlorpromazine, PL1-AgNPs 37 °C 1 h, etching, three independent experiments. Type of assay: cell-based. The method, then: For characterization of the AgNP uptake pathway in glioma cells, the U87-MG cells were cultured until 80–90% confluency and pre-incubated with the following endocytosis inhibitors: (1) 50 μM Nystatin to block caveolae/lipid-mediated endocytosis, (2) 50 μM 5-(N-ethyl-N-isopropyl)-Amiloride (EIPA) to block […], (3) 4 μM Cytochalasin D to block actin polymerization and […], and (4) 10 μM Chlorpromazine to block clathrin-mediated endocytosis. The PL1-AgNPs or control biotin-AgNPs were then added, and the cells were incubated at 37 °C for 1 h and subsequently washed to remove free particles. Some samples were also treated with an etching solution to remove accessible surface-bound AgNPs. The fluorescence of the labeled AgNPs was detected and analyzed using the BD Accuri 6 flow cytometer in the 555 nm channel.

Another assay addresses T1, FN-EDB WT and mutants (Homo sapiens, UniProt P02751, D1277N/D1314N/D1317N).
T1 construct: Fibronectin Extra Domain B (FN-EDB); made in house; host or cells: E. coli BL21 Rosetta 2 (DE3) pLysS
The assay is described as follows: Binding of PL1 nanoworms to recombinant FN-EDB proteins. The settings on record: FAM-labeled NWs, 80 µg/reaction, protein on Ni-NTA beads, fluorescence 485/535 nm, baseline corrected with control protein P32; three independent experiments. How it is done: (§1) Wild type (WT) TNC-C and FN-EDB were prepared as described previously. The DNA inserts encoding for hexahistidine-tagged mutant TNC-C variants (TNC-C E48Q, TNC-C D39N D45N, TNC-C D13N E70Q E88Q) and mutant FN-EDBs variants (FnEDB D68N D70N, FnEDB D52N D49N D12N, FnEDB E42Q D68N E64Q) were synthesized and cloned into pET28a+ expression vectors (GenScript Biotech BV, Netherlands). The resulting plasmids were transformed into the E. coli BL21 Rosetta 2 (DE3) pLysS strain (Novagen, #70956). The protein expression was induced with 0.5 mM IPTG and followed by culturing at 20 °C for 16 h. The bacterial cells were lysed by sonication (Bandelin Sonopuls HD 2070, Merck, Germany) in ice-cold IMAC buffer (25 mM Tris-HCL, 400 mM NaCl, 25 mM imidazole pH 8, protease inhibitors cocktail, DNase I, 1 mM MgCl2). […] The protein concentration was measured by bicinchoninic acid (BCA) assay (Thermo Scientific #23227). The protein purity and size were analyzed using 15% SDS-PAGE.
(§2) The recombinant hexahistidine-tagged TNC-C and EDB WT and mutant proteins (at 60 µg of protein/40 µL beads in PBS) were immobilized to Ni-NTA Magnetic Agarose Beads (QIAGEN, Hilden, Germany) at RT for 1 h. […] The fluorescence of eluted samples was quantified using a Victor X5 Multilabel Plate Reader (PerkinElmer, MA, USA) at an excitation wavelength of 485 nm and an emission wavelength of 535 nm.

A further assay addresses T2, TNC-C WT and mutants (Homo sapiens, UniProt P24821, D1565N/D1571N).
T2 construct: Tenascin C C-isoform (TNC-C); made in house; host or cells: E. coli BL21 Rosetta 2 (DE3) pLysS
T2 sequence (P24821 1527-1617 D1565N/D1571N): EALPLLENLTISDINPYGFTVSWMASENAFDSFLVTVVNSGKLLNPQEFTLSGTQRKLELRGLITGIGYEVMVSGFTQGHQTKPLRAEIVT
The assay is described as follows: Binding of PL1 nanoworms to recombinant TNC-C proteins. The settings on record: FAM-labeled NWs, 80 µg/reaction, protein on Ni-NTA beads, fluorescence 485/535 nm, baseline corrected with control protein P32; three independent experiments. How it is done:
as §1, §2

Assay [1] deals with T3, PL1-functionalized iron oxide nanoworms (FAM-labelled PL1 peptide on NWs).
T3 chain: PPRRGLIKLKTS
The assay is described as follows: fluorescence readout of FAM-labeled PL1-NW binding to protein-coated NiNTA beads. The settings on record: chain shown with the change; baseline correction with control protein P32; parent: est. 100; read off a plot.

Assay [2] addresses T4, PL1 peptide displayed on T7 phage.
T4 chain: PPRRGLIKLKTS
The assay is described as follows: phage binding to immobilized recombinant protein (Ni-NTA magnetic beads). Particulars: chain shown with the change;; parent: est. 100; read off a plot.

In assay [3] the target is Fibronectin Extra Domain B mutant D52N D49N D12N, hexahistidine-tagged (human). The assay is described as follows: binding of fluorescent peptide nanoworms to protein-coated beads; His-tagged proteins (60 µg/40 µL beads) on Ni-NTA magnetic agarose beads; FAM-labelled PL1-NW 80 µg/reaction in PBS, 1% BSA, 0.1% NP40; 6 washes; eluted with 500 mM imidazole; fluorescence 485/535 nm; percent of WT after baseline correction with control protein P32.

Assay [4] deals with Fibronectin Extra Domain B, wild type, hexahistidine-tagged (human) (UniProt P02751). The assay is described as follows: fluorescence polarisation; fluorescence anisotropy saturation binding in solution; fixed FAM-PL1, 0-112 µM FN-EDB or 0-275 µM TNC-C; PBS with 0.1% Pluronic F-127; 24 h at 25 °C; non-specific binding with 500 µM Biotin-Ahx-PL1; global fit, single site with ligand depletion. (Fluorescence polarisation rises when a labelled molecule tumbles more slowly, as on binding a larger partner.)

In assay [5] the target is Tenascin C C-isoform, wild type, hexahistidine-tagged. The description is as above.
The target in assay [6] is Fibronectin Extra Domain B mutant D52N D49N D12N, hexahistidine-tagged (human). The assay is described as follows: phage binding assay (titre of eluted phage); His-tagged proteins (30 µg/10 µL beads) on Ni-NTA magnetic agarose beads; T7 phage 5 x 10^8 pfu in 100 µL PBS, 1% BSA, 0.1% NP40, RT, 1 h; 6 washes; eluted with 500 mM imidazole; PFU counted; expressed as percent of WT protein.

The target in assay [7] is Fibronectin Extra Domain B mutant D68N D70N, hexahistidine-tagged (human). Described as above.
Assay [8] has as its target Fibronectin Extra Domain B mutant E42Q D68N E64Q, hexahistidine-tagged (human). The assay is described as above.

Where a chain is given by its changes, count along the chain named. In names and notes the source's numbering stands. Entries after “also recorded” stand apart in the source; their conditions may differ. FAM = 5(6)-carboxyfluorescein; Ahx = NCCCCCC(=O)O

T1 sequence (P02751 1271-1359 D1277N/D1314N/D1317N): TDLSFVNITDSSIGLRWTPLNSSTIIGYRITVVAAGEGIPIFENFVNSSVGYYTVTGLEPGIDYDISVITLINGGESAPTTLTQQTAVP

For `CN(C)CCCN1c2ccccc2Sc2ccc(Cl)cc21` [Chlorpromazine], in the assay on U87-MG cells, the “Effect of inhibitor on the uptake of PL1-AgNPs in U87-MG cells” value (“Effect of inhibitor” for short) is recorded as “statistically significant inhibitory effect”.

For “PL1-NW: iron oxide nanoworms coated with PL1 peptide labeled with FAM fluorophore ({FAM-Ahx}-PPRRGLIKLKTS-OH; also: peptide coated on iron oxide nanoworms)”, the “Reduction of PL1-NW binding to FN-EDB D52N D49N D12N mutant versus WT FN-EDB” value with FN-EDB WT and mutants is given as ~ 76%. For the same molecule, the “Reduction of PL1-NW binding to TNC-C D39N D45N mutant versus WT TNC-C” value in the assay with TNC-C WT and mutants is ~ 100%.

Consider `C[C@@H]1[C@H](O)[C@@H](C)/C=C/C=C/CC/C=C/C=C/C=C/C=C/C(O[C@H]2O[C@H](C)[C@@H](O)[C@H](N)[C@@H]2O)CC2O[C@](O)(CC(O)C(O)CCC(O)CC(O)CC(O)CC(=O)O[C@H]1C)CC(O)C2C(=O)O` (stereo partly shown) [Nystatin], for which, in the assay on U87-MG cells, the “Effect of inhibitor” value is listed as “statistically significant inhibitory effect”.

As to `C=C1[C@@H](C)[C@H]2[C@H](Cc3ccccc3)NC(=O)[C@]23[C@H](OC(C)=O)/C=C/[C@@](C)(O)C(=O)[C@@H](C)C/C=C/[C@H]3[C@@H]1O` [Cytochalasin D], in the assay on U87-MG cells, the “Effect of inhibitor” value is listed as “statistically significant inhibitory effect”.

Regarding `CCN(c1nc(N)c(C(=O)N=C(N)N)nc1Cl)C(C)C` [EIPA, 5-(N-ethyl-N-isopropyl)-Amiloride], in the assay on U87-MG cells, the “Effect of inhibitor” value is on record as “statistically significant inhibitory effect; also recorded: strongest”.

B1: Tenascin C C-isoform, wild type, hexahistidine-tagged D13N; E70Q; E88Q (protein)
chain: T2 sequence (P24821 1527-1617 D1565N/D1571N) with D13N, N39D, N45D, E70Q, E88Q
Regarding B1, the results for the percent of parent (% Change over wt TNC-C) in assay [1] and in assay [2] were 70 and 33, respectively.

B2: Tenascin C C-isoform, wild type, hexahistidine-tagged D39N; D45N (protein)
chain: T2 sequence (P24821 1527-1617 D1565N/D1571N)
Take B2: the percent of parent (% Change over wt TNC-C) in [1] amounted to 0.

B3: Tenascin C C-isoform, wild type, hexahistidine-tagged E48Q (protein)
chain: T2 sequence (P24821 1527-1617 D1565N/D1571N) with N39D, N45D, E48Q
B3: the percent of parent (% Change over wt TNC-C) in assay [1] was determined as 64; in assay [2] it was 38.

B4: Fibronectin Extra Domain B, wild type, hexahistidine-tagged, P02751 E42Q; D68N; E64Q (protein)
chain: EVPQLTDLSFVDITDSSIGLRWTPLNSSTIIGYRITVVAAGQGIPIFEDFVDSSVGYYTVTGLQPGINYDISVITLINGGESAPTTLTQQT
With B4, in assay [1], the percent of parent (% Change over wt FnEDB) stood at 57.

B5: Fibronectin Extra Domain B, wild type, hexahistidine-tagged, P02751 D68N; D70N (protein)
chain: B4 chain with Q42E, Q64E, D70N
In the case of B5, the percent of parent (% Change over wt FnEDB) in [1] was 29.

{FAM-Ahx}-PPRRGLIKLKTS-OH (also: peptide coated on iron oxide nanoworms) [PL1-functionalized iron oxide nanoworms (FAM-labelled PL1 peptide on NWs)] showed a percent reduction of binding against WT FN-EDB in [3] of 76%.

The Kd is the concentration at which binding is half-saturated. A low value points to a tighter complex. For {5(6)‑carboxyfluorescein-Ahx}-PPRRGLIKLKTS-OH [FAM-PL1 peptide (free peptide)], the Kd in assay [4] amounted to 1110 nM; in [5], 1140 nM.

Consider PPRRGLIKLKTS [PL1 peptide displayed on T7 phage], for which, in assay [6], the percent decrease of binding against WT FN-EDB was 87%. Moreover, the percent increase of binding against WT FN-EDB in [7] came out at 142%; in assay [8] it was 161%.
